According to the Human Domainome abundance scans (Beltran et al. 2025):
± gives the uncertainty stated by the source.

B1: Ubiquitin-protein ligase residues 30 to 86; numbered along this chain, Q05086 (parent)
chain: KHLIERYYHQLTEGCGNEACTNEFCASCPTFLRMDNNAAAIKALELYKINAKLCDPH

Variants of: B1
Test: abundance fitness (aPCA) (normalised: wild type 0, dead -1); higher = more abundant; growth selection in yeast, the domain comes from the species named
Conditions: Homo sapiens

Row | Variant | abundance fitness
1 | KHLIERYYHQLTEGCGNEACTNEFPASCPTFLRMDNNAAAIKALELYKINAKLCDPH [C25P] | -1.18 ± 0.23
2 | KHLIERYYHQLTEGCGNEACTNEFGASCPTFLRMDNNAAAIKALELYKINAKLCDPH [C25G] | -0.973 ± 0.1
3 | KHLIERYYHQLTEGCGNEACTNEFSASCPTFLRMDNNAAAIKALELYKINAKLCDPH [C25S] | -0.741 ± 0.14
4 | KHLIERYYHQLTEGCGNEACTNEFAASCPTFLRMDNNAAAIKALELYKINAKLCDPH [C25A] | -1.03 ± 0.18
5 | KHLIERYYHQLTEGCGNEACTNEFMASCPTFLRMDNNAAAIKALELYKINAKLCDPH [C25M] | -0.841 ± 0.15
6 | KHLIERYYHQLTEGCGNEACTNEFNASCPTFLRMDNNAAAIKALELYKINAKLCDPH [C25N] | -0.882 ± 0.32
7 | KHLIERYYHQLTEGCGNEACTNEFIASCPTFLRMDNNAAAIKALELYKINAKLCDPH [C25I] | -0.613 ± 0.28
8 | KHLIERYYHQLTEGCGNEACTNEFWASCPTFLRMDNNAAAIKALELYKINAKLCDPH [C25W] | -1.05 ± 0.23
9 | KHLIERYYHQLTEGCGNEACTNEFEASCPTFLRMDNNAAAIKALELYKINAKLCDPH [C25E] | -0.72 ± 0.21
10 | KHLIERYYHQLTEGCGNEACTNEFKASCPTFLRMDNNAAAIKALELYKINAKLCDPH [C25K] | -1.01 ± 0.21
11 | KHLIERYYHQLTEGCGNEACTNEFRASCPTFLRMDNNAAAIKALELYKINAKLCDPH [C25R] | -1.05 ± 0.12
12 | KHLIERYYHQLTEGCGNEACTNEFYASCPTFLRMDNNAAAIKALELYKINAKLCDPH [C25Y] | -0.816 ± 0.095
13 | KHLIERYYHQLTEGCGNEACTNEFLASCPTFLRMDNNAAAIKALELYKINAKLCDPH [C25L] | -1.08 ± 0.13
14 | KHLIERYYHQLTEGCGNEACTNEFHASCPTFLRMDNNAAAIKALELYKINAKLCDPH [C25H] | -0.887 ± 0.21
15 | KHLIERYYHQLTEGCGNEACTNEFVASCPTFLRMDNNAAAIKALELYKINAKLCDPH [C25V] | -0.891 ± 0.11
16 | KHLIERYYHQLTEGCGNEACTNEFFASCPTFLRMDNNAAAIKALELYKINAKLCDPH [C25F] | -0.791 ± 0.17
17 | KHLIERYYHQLTEGCGNEACTNMFCASCPTFLRMDNNAAAIKALELYKINAKLCDPH [E23M] | -0.021 ± 0.079
18 | KHLIERYYHQLTEGCGNEACTNYFCASCPTFLRMDNNAAAIKALELYKINAKLCDPH [E23Y] | -0.102 ± 0.097
19 | KHLIERYYHQLTEGCGNEACTNCFCASCPTFLRMDNNAAAIKALELYKINAKLCDPH [E23C] | -0.082 ± 0.093
20 | KHLIERYYHQLTEGCGNEACTNTFCASCPTFLRMDNNAAAIKALELYKINAKLCDPH [E23T] | -0.022 ± 0.081
21 | KHLIERYYHQLTEGCGNEACTNFFCASCPTFLRMDNNAAAIKALELYKINAKLCDPH [E23F] | -0.084 ± 0.11
22 | KHLIERYYHQLTEGCGNEACTNRFCASCPTFLRMDNNAAAIKALELYKINAKLCDPH [E23R] | -0.045 ± 0.055
23 | KHLIERYYHQLTEGCGNEACTNGFCASCPTFLRMDNNAAAIKALELYKINAKLCDPH [E23G] | -0.045 ± 0.048

Row | Variant | abundance fitness
24 | KHLIERYYHQLTEGCGNEACTNWFCASCPTFLRMDNNAAAIKALELYKINAKLCDPH [E23W] | -0.134 ± 0.072
25 | KHLIERYYHQLTEGCGNEACTNQFCASCPTFLRMDNNAAAIKALELYKINAKLCDPH [E23Q] | -0.019 ± 0.087
26 | KHLIERYYHQLTEGCGNEACTNLFCASCPTFLRMDNNAAAIKALELYKINAKLCDPH [E23L] | -0.106 ± 0.065
27 | KHLIERYYHQLTEGCGNEACTNPFCASCPTFLRMDNNAAAIKALELYKINAKLCDPH [E23P] | -0.105 ± 0.087
28 | KHLIERYYHQLTEGCGNEACTNHFCASCPTFLRMDNNAAAIKALELYKINAKLCDPH [E23H] | -0.09 ± 0.1
29 | KHLIERYYHQLTEGCGNEACTNSFCASCPTFLRMDNNAAAIKALELYKINAKLCDPH [E23S] | -0.001 ± 0.064
30 | KHLIERYYHQLTEGCGNEACTNDFCASCPTFLRMDNNAAAIKALELYKINAKLCDPH [E23D] | -0.062 ± 0.07
31 | KHLIERYYHQLTEGCGNEACTNKFCASCPTFLRMDNNAAAIKALELYKINAKLCDPH [E23K] | -0.054 ± 0.078
32 | KHLIERYYHQLTEGCGNEACTNAFCASCPTFLRMDNNAAAIKALELYKINAKLCDPH [E23A] | -0.077 ± 0.058
33 | KHLIERYYHQLTEGCGNEACRNEFCASCPTFLRMDNNAAAIKALELYKINAKLCDPH [T21R] | -0.038 ± 0.051
34 | KHLIERYYHQLTEGCGNEACGNEFCASCPTFLRMDNNAAAIKALELYKINAKLCDPH [T21G] | -0.022 ± 0.049
35 | KHLIERYYHQLTEGCGNEACDNEFCASCPTFLRMDNNAAAIKALELYKINAKLCDPH [T21D] | -0.011 ± 0.08
36 | KHLIERYYHQLTEGCGNEACINEFCASCPTFLRMDNNAAAIKALELYKINAKLCDPH [T21I] | -0.033 ± 0.096
37 | KHLIERYYHQLTEGCGNEACWNEFCASCPTFLRMDNNAAAIKALELYKINAKLCDPH [T21W] | -0.105 ± 0.07
38 | KHLIERYYHQLTEGCGNEACSNEFCASCPTFLRMDNNAAAIKALELYKINAKLCDPH [T21S] | -0.037 ± 0.059
39 | KHLIERYYHQLTEGCGNEACLNEFCASCPTFLRMDNNAAAIKALELYKINAKLCDPH [T21L] | -0.086 ± 0.062
40 | KHLIERYYHQLTEGCGNEACYNEFCASCPTFLRMDNNAAAIKALELYKINAKLCDPH [T21Y] | -0.458 ± 0.14
41 | KHLIERYYHQLTEGCGNEACCNEFCASCPTFLRMDNNAAAIKALELYKINAKLCDPH [T21C] | -0.015 ± 0.08
42 | KHLIERYYHQLTEGCGNEACHNEFCASCPTFLRMDNNAAAIKALELYKINAKLCDPH [T21H] | 0.018 ± 0.093
43 | KHLIERYYHQLTEGCGNEACENEFCASCPTFLRMDNNAAAIKALELYKINAKLCDPH [T21E] | 0.043 ± 0.07
44 | KHLIERYYHQLTEGCGNEACKNEFCASCPTFLRMDNNAAAIKALELYKINAKLCDPH [T21K] | 0.059 ± 0.086
45 | KHLIERYYHQLTEGCGNEACMNEFCASCPTFLRMDNNAAAIKALELYKINAKLCDPH [T21M] | -0.129 ± 0.076
46 | KHLIERYYHQLTEGCGNEACQNEFCASCPTFLRMDNNAAAIKALELYKINAKLCDPH [T21Q] | -0.046 ± 0.087
